Reference: patent US20250154217A1 (ZONHON BIOPHARMA INSTITUTE, published 2025)
Positions count from the first letter of the chain named. Names may count otherwise.

T1: IL-2Rα(CD25) (UniProt P01589 22-213, limits assumed)
T1 construct: also called IL-2α
T1 sequence (looked up): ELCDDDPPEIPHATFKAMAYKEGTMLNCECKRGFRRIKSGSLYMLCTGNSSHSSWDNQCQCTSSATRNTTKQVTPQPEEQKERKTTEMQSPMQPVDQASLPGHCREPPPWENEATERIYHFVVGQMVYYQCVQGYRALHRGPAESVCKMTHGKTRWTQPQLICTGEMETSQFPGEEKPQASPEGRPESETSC

T2: IL-2Rβ(CD122) (UniProt P14784 27-239, limits assumed)
T2 construct: also called IL-2β
T2 sequence (looked up): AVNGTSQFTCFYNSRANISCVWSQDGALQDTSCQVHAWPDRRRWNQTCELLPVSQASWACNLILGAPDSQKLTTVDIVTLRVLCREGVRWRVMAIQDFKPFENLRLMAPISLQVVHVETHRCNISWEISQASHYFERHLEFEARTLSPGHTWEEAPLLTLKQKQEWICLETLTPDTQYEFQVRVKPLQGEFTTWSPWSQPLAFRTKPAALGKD

T3: IL-2Rβ/γ receptor (UniProt P14784 27-239; P31785 23-262, limits assumed)
T3 sequence (looked up) 1: T2 sequence (looked up)
T3 sequence (looked up) 2: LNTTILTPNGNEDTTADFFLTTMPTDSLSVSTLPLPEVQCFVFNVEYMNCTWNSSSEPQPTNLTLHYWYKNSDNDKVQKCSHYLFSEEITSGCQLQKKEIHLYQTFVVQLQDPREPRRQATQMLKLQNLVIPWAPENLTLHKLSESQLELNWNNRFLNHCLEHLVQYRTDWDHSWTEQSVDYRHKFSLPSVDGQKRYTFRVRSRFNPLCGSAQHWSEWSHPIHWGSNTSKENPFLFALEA

B1: IL-2 mutant G438 (ligand)
chain: APTSSSTRKTQLQLEHLLLDLQMILNGINNYKNPKLTRMLTFKFYMPWKATELKHLQCLEEELKPLEEVLNLAQSKNFHLRPRDLISNINVIVLELKGSETTFMCEYADETATIVEFLNRWITFAQSIISTLT
B2: IL-2 mutant G438P12 (ligand)
chain: B1 chain with L18M, L19S, W48R
B3: IL-2 mutant G438P3 (ligand)
chain: B1 chain with G27C, F78C
notes: also called GP3
B4: IL-2 mutant G438P7 (ligand)
chain: B1 chain with R38E, T41E
notes: also called GP7
B5: IL-2 mutant G438P17 (ligand)
chain: B1 chain with L18M, L19S, R81D, P82T, R83E, S87D
notes: also called GP17
B6: IL-2 mutant G438P8 (ligand)
chain: B1 chain with L72F, R81D
notes: also called GP8
B7: IL-2 mutant G438P6 (ligand)
chain: B1 chain with F42A, K43D
notes: also called GP6
B8: IL-2 mutant G496 (ligand)
chain: B1 chain with K43W, K54W, K64H, K97R
B9: IL-2 mutant G438P15 (ligand)
chain: B1 chain with L18M, L19S, R38E, T41E, Y45R, L72F
notes: also called GP15
B10: IL-2 mutant G438P14 (ligand)
chain: B1 chain with L18M, L19S, R38E, T41E
notes: also called GP14
B11: IL-2 mutant G438P16 (ligand)
chain: B1 chain with L18M, L19S, R38E, T41E, P82A, S87D
notes: also called GP16
B12: IL-2 mutant G498 (ligand)
chain: B1 chain with K43W, K54W, K64H, K97F
B13: IL-2 mutant G438P1 (ligand)
chain: B1 chain with L18M, L19S
notes: also called GP1
B14: IL-2 mutant G493 (ligand)
chain: B1 chain with K43W, K54W, K64H, K97E
B15: IL-2 mutant G438P2 (ligand)
chain: B1 chain with K35E, K43D
notes: also called GP2
B16: IL-2 mutant G438P9 (ligand)
chain: B1 chain with L18M, L19S, F42A
notes: also called GP9
B17: IL-2 mutant G438P10 (ligand)
chain: B1 chain with L18M, L19S, H79E, R81D
notes: also called GP10
B18: IL-2 mutant G438P19 (ligand)
chain: PTSSSTRKTQLQLEHLMSDLQMILNGINNYKNPKLTRMLTFKFYMPWKATELKHLQCLEEELKPLEEVLNLAQSKNFHLRPRDLISNINVIVLELKGSETTFMCEYADETATIVEFLNRWITFSQSSSQH
notes: Printed: lack of the first amino acid A, K8R/L18M/L19S/K48W/A125S, IISTLT from position 128 mutated to SSQH; also called GP19

Target: T1, IL-2Rα(CD25)
Experiment: BLI (Fortebio)
Description: (§1) The affinity between IL-2 mutants and their receptors was detected by Bio-Layer Interferometry (BLI).
(§2) Receptor solution: IL-2Rα(CD25), IL-2Rβ(CD122) and IL-2Rβ/γ receptor samples were diluted to 15-20 μg/mL with 1×Kinetics buffer, mixed and stored in a dark place.
(§3) Samples were added to the sample wells according to the protocol design, and 200 μL of reagent or sample was added to each well.

First: B1
Second: B2
The Kd of the first is 1.6-fold higher: 13.4 nM for the first, 8.48 nM for the second.

Going from B3 to B4, the Kd rises from 26.4 nM to 178000 nM (6700-fold). The first binds more tightly here.

B5 and B6 are within 1.5-fold of each other in Kd: 94.9 nM for the first, 131 nM for the second.

B7 and B9 are within 1.5-fold of each other in Kd: 119 nM for the first, 170 nM for the second.

Compared with B11, B13 is 20-fold lower in Kd: 353 nM for the first, 17.9 nM for the second.

Compared with B15, B16 is 2-fold lower in Kd: 68.9 nM for the first, 34.7 nM for the second.

B17 and B18 are within 1.5-fold of each other in Kd: 36.1 nM for the first, 38.6 nM for the second.

B8: no binding.
B10: no binding.
B12: no binding.
B14: no binding.

Target: T2, IL-2Rβ(CD122)
Experiment: BLI (Fortebio)
Description: as §1, §2, §3

Going from B1 to B2, the Kd falls from 15.3 nM to 7.29 nM (2.1-fold).

First: B3
Second: B4
The Kd of the first is 5.3-fold lower: 12.1 nM for the first, 64.2 nM for the second.

First: B5
Second: B6
The Kd of the first is 5.1-fold higher: 61 nM for the first, 12 nM for the second. The second binds more tightly here.

Compared with B7, B9 is 1.7-fold higher in Kd: 52.3 nM for the first, 87.1 nM for the second. The first binds more tightly here.

Going from B10 to B11, the Kd falls from 42600 nM to 142 nM (300-fold). The second binds more tightly here.

B13 and B15 are the same in Kd: 18.3 nM for the first, 18.3 nM for the second.

B16 and B17 are within 1.5-fold of each other in Kd: 26.4 nM for the first, 30.5 nM for the second.

B18 showed a Kd of 12.9 nM.

B8: no binding.
B12: no binding.
B14: no binding.

Target: T3, IL-2Rβ/γ receptor
Experiment: BLI (Fortebio)
Description: as §1, §2, §3

B4 and B6 are within 1.5-fold of each other in Kd: 35.4 nM for the first, 32.7 nM for the second.

Going from B9 to B10, the Kd falls from 136000 nM to 39.6 nM (3400-fold).
